Measured values as given in patent US20110076232A1 (published 2011).
Residue numbers refer to the chain shown, from its start. Values belong to the molecule of their own block, whether it stands above or below them. Ends that are not written are not given here.

What was measured:
[1] = molecular target: wild-type epidermal growth factor receptor (wtEGFR) (human) (UniProt P00533); test: Scatchard, A431 cells
[2] = molecular target: wtEGFR-FLAG (N-terminally FLAG-tagged wild-type EGFR on Ba/F3 cells) (human) (UniProt P00533); test: FACS median fluorescence, Ba/F3 cells; reference anti-FLAG M2
[3] = molecular target: C271A/C283A-EGFR (full length, on Ba/F3 cells) (human) (UniProt P00533); test: FACS median fluorescence, Ba/F3 cells, four clones; reference anti-FLAG M2
[4] = molecular target: T1, 15N-labelled EGFR287-302 peptide with methionine mutated to leucine (human, not fully specified (bridges); cysteine pairing not given here; also: 15N-labelled (residues not given here)); test: NMR, perturbation of 15N HSQC spectra
T1 peptide: CGADSYELEEDGVRKC

[5] = molecular target: T2, EGFR peptide 287-302 (806 peptide epitope) (human, not fully specified (bridges); printed as 287CGADSYEMEEDGVRKC302; cysteine pairing not given here); test: BIAcore, immobilised peptide 287-302, antibody 200 nM
T2 peptide: CGADSYEMEEDGVRKC

[6] = molecular target: T3, Peptide C: LEEKKGNYVVTDH(K-Biot)-OH (biotin on the added C-terminal Lys (K-Biot)); test: BIAcore, Peptide C on streptavidin chip
T3 peptide: LEEKKGNYVVTDHK

maximal binding (RU) [5]: 800 RU
B2: monoclonal antibody 1133 (mAb1133) (antibody, V domains shown)
VH: DVQLQGSGPSLVKPSQSLSLTCTVTGYSITSDYAWNWIRQFPGNKLEWMGYISYSGNTRYNPSLRSRISITRDTSKNQFFLQLNSVTTEDTATYYCATAGRGFPYWGQGTLVTVSA
VL: DILMTQSPSSMSVSLGDTVNITCHSSQDINSNIGWLQQKPGKSFKGLIYHGTNLDDGVPSRFSGSGSGADYSLTISSLESEDFADYYCVQYGQFPWTFGGGTKLEIKR
notes: murine IgG2a

binding result [6]: no binding (tested: 100 nM)
B3: monoclonal antibody 806 (mAb806) (antibody, V domains shown)
VH: B2 VH with G6E, Y33F, R65K, T88I, A97V
VL: B2 VL with N20S, K39R, G57E, G92A
notes: murine IgG2b; also called m806

The next lines start with the molecule.

Molecule: monoclonal antibody 528
binding sites per cell (sites per cell) [1]: 2e+06 | receptors per cell (receptors per cell) [1]: 2e+06 | ratio of antibody binding mAb 528/M2 [2]: 1.37 | ratio of antibody binding mAb 528/M2 [3]: 1.08

B1: Fab fragment of mAb806 (Fab, V domains shown)
VH: B2 VH with G6E, Y33F, R65K, T88I, A97V
VL: B2 VL with N20S, K39R, G57E, G92A
notes: papain Fab of the intact mAb; also called Fab806
binding result [4]: binds
